Literature values, collected in article PMC6787260.
Read-outs that look alike come from different tables or passages of the source.

Legend:
PDK1 (Homo sapiens) [1] = molecular target: PDK1 (Homo sapiens) (UniProt O15530); test: time resolved-FRET
PDK1 (Homo sapiens) [2] = molecular target: PDK1 (Homo sapiens) (UniProt O15530); test: time resolved-FRET; remark: listed apart in the source

- Kd (PDK1 (Homo sapiens) [1]): 11 µM
- Kd (PDK1 (Homo sapiens) [2]): 49 µM
Substance: PDK1 (from UniProt O15530)
